In the supplement of paper PMC10126150:
± gives the standard deviation of the averaged measurements.

Tested on: ATP
Test: switch fluorescence ratio, 500 uM ATP over buffer (Cy3 cluster intensity, sum of 5 cycles each) (fold (ratio)); higher = stronger signal-on switching upon ATP binding; sequences stand for … in TCGTCGGCAGCGTCAGATGTGTATAAGAGACAGTTTTTTTTTTTTTTTTTTTTTTTTT…TC
Details: aptamer strand: ATP DNA aptamer (quencher-CACCTGGGGGAGTATTGCGGAGGAAGG + anchor), 100 nM annealed; ATP concentration: 500 uM
Summary of the method: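 Imaging in selection buffer was followed by imaging after 15 min with 500 uM ATP at 22 °C, for Cy3-labelled switching-strand clusters annealed to 100 nM quencher-labelled ATP aptamer on a modified Illumina MiSeq flow-cell. Five of these buffer/ATP cycles ran, separated by NaOH stripping and re-annealing. The fluorescence ratio per cluster is summed target-cycle over summed buffer-cycle Cy3 intensity, averaged per switch-domain sequence; clusters outside 100-1000 RFU were removed.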
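Note: ATP exposure 15 min at 22 °C before imaging.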

Sequence | switch fluorescence ratio
TTCAGAAGCC | 1.12 ± 0.061
TTCAGAAGCG | 1.01 ± 0.028
TTCAGAAGGT | 1.01 ± 0.051
TTCAGACTTT | 0.996 ± 0.022
TTCAGAGCGT | 0.994 ± 0.018
TTCAGATGCG | 0.993 ± 0.041
TTCAGATGGG | 0.972 ± 0.01
TTCAGCCATT | 1.01 ± 0.041
TTCAGCCGAG | 1.02 ± 0.014
TTCAGCTCTA | 0.993 ± 0.028
TTCAGGAGAC | 1.01 ± 0.041
TTCAGGAGTG | 0.993 ± 0.067
TTCAGGCCGT | 1.02 ± 0.056
TTCAGGGAGA | 1.005 ± 0.008
TTCAGGGGCT | 1.43 ± 0.58
TTCAGGGGTC | 1.02 ± 0.018
TTCAGTACCT | 1.19 ± 0.016
TTCAGTATGG | 0.9614 ± 0.0068
TTCAGTGCAT | 1.02 ± 0.051
TTCAGTGGAG | 1.009 ± 0.0087
TTCAGTTCGT | 1.008 ± 0.0089
TTCAGTTGAG | 1 ± 0.014
TTCAGTTTTA | 1.017 ± 0.0035
TTCATAACAA | 1.02 ± 0.022
TTCATAATGT | 0.9632 ± 0.0096

Sequence | switch fluorescence ratio
TTCATCAGCG | 1.05 ± 0.083
TTCATCGGGG | 0.979 ± 0.028
TTCATGAGTT | 1 ± 0.0022
TTCATGGGGC | 1.05 ± 0.086
TTCATTAATC | 0.97104 ± 0.00025
TTCATTCGCT | 1.52 ± 0.056
TTCATTCGTT | 1.05 ± 0.046
TTCATTGGGA | 1.01 ± 0.025
TTCATTTCGG | 1.001 ± 0.0025
TTCATTTGGT | 0.983 ± 0.025
TTCCAATGAT | 1.01 ± 0.044
TTCCACCAAA | 1.07 ± 0.033
TTCCAGTTGG | 1.04 ± 0.037
TTCCATGTCG | 0.958 ± 0.02
TTCCATTTTT | 0.984 ± 0.012
TTCCCCAGTT | 1.03 ± 0.036
TTCCCCCTTT | 1.45 ± 0.58
TTCCCCGTTG | 1.12 ± 0.15
TTCCCGAAGT | 1.02 ± 0.04
TTCCCGGACT | 1.02 ± 0.024
TTCCCGTGGG | 1 ± 0.011
TTCCGAAGGT | 1.03 ± 0.03
TTCCGAGATA | 1.119 ± 0.0079
TTCCGAGCTA | 2.563 ± 0.0074
TTCCGCCGCT | 2.34 ± 1.8

Sequence | switch fluorescence ratio
TTCCGGGAGG | 0.993 ± 0.076
TTCCGGGGCG | 0.991 ± 0.038
TTCCGGTCTT | 1.03 ± 0.066
TTCCGGTTGT | 1.03 ± 0.011
TTCCGTTATG | 1.04 ± 0.037
TTCCTCTGTT | 1.37 ± 0.26
TTCCTGAGGG | 1.11 ± 0.058
TTCCTGGAC | 1.7 ± 0.39
TTCCTTAGCG | 1.03 ± 0.015
TTCCTTGGAT | 1.015 ± 0.0019
TTCCTTGGTC | 1.18 ± 0.24
TTCCTTTTGT | 1.29 ± 0.43
TTCGAAGGTT | 0.979 ± 0.017
TTCGACGCTA | 1.33 ± 0.57
TTCGACGGTT | 1.03 ± 0.033
TTCGACTTCG | 0.9903 ± 0.0063
TTCGACTTTT | 0.988 ± 0.051
TTCGAGACTT | 1.05 ± 0.055
TTCGAGCGAT | 1.78 ± 0.98
TTCGAGTTGG | 0.9772 ± 0.0027
TTCGATCGTT | 1.01 ± 0.043
TTCGATGCAT | 1.58 ± 0.43
TTCGATTGTT | 0.952 ± 0.018
TTCGCCTAAG | 0.9658 ± 0.0067
TTCGCGGGTT | 0.97 ± 0.01

Sequence | switch fluorescence ratio
TTCGCTGGGT | 0.995 ± 0.017
TTCGGAAATG | 1.03 ± 0.025
TTCGGAACAG | 0.967 ± 0.013
TTCGGAAGGG | 0.956 ± 0.025
TTCGGAAGTT | 0.966 ± 0.021
TTCGGAATTG | 1.04 ± 0.033
TTCGGACTGC | 1.06 ± 0.031
TTCGGAGGGA | 2.2 ± 1.5
TTCGGAGTTG | 1 ± 0.022
TTCGGATGGC | 1.01 ± 0.084
TTCGGATTCG | 0.968 ± 0.03
TTCGGATTGG | 1.01 ± 0.0061
TTCGGCGACG | 1.0016 ± 0.00078
TTCGGCGCTG | 1.03 ± 0.074
TTCGGGATTA | 1 ± 0.018
TTCGGGGAAA | 1.02 ± 0.043
TTCGGGGAAC | 1.06 ± 0.11
TTCGGGGGGA | 1.04 ± 0.09
TTCGGGGTGG | 0.9976 ± 0.0066
TTCGGGTTTT | 1 ± 0.033
TTCGGTACTG | 1.01 ± 0.033
TTCGGTATGT | 1.01 ± 0.027
TTCGGTGGCG | 0.978 ± 0.077
TTCGGTGGGT | 0.988 ± 0.027
TTCGGTGGTT | 1.08 ± 0.076

Sequence | switch fluorescence ratio
TTCGTACAGC | 1.04 ± 0.036
TTCGTAGAAA | 1.05 ± 0.032
TTCGTATGGG | 1.09 ± 0.12
TTCGTCGGAT | 0.9991 ± 0.0037
TTCGTGGGGA | 0.995 ± 0.025
TTCGTGTACG | 1.02 ± 0.019
TTCGTGTATT | 1 ± 0.025
TTCGTTAAAG | 0.9612 ± 0.002
TTCGTTAAGA | 0.992 ± 0.0094
TTCGTTATGT | 0.98 ± 0.027
TTCGTTCGGT | 1.06 ± 0.07
TTCGTTCTTC | 0.993 ± 0.019
TTCGTTGGGG | 1.01 ± 0.041
TTCGTTTATT | 1.01 ± 0.046
TTCGTTTCGT | 0.995 ± 0.014
TTCGTTTTAG | 0.996 ± 0.033
TTCGTTTTCT | 1 ± 0.039
TTCGTTTTGA | 1.02 ± 0.057
TTCTAAAAAA | 1.01 ± 0.021
TTCTAAAGGG | 0.984 ± 0.065
TTCTAACTGG | 0.995 ± 0.013
TTCTAAGGTA | 0.993 ± 0.021
TTCTACTGGG | 1.01 ± 0.028
TTCTAGTCTA | 0.987 ± 0.01
TTCTATATGT | 0.977 ± 0.027

Sequence | switch fluorescence ratio
TTCTATGCAT | 1.14 ± 0.13
TTCTATTCTT | 1.02 ± 0.026
TTCTCAAAGA | 1.07 ± 0.1
TTCTCGAGTT | 0.992 ± 0.013
TTCTCGTACA | 1.19 ± 0.29
TTCTCTAATG | 1.03 ± 0.016
TTCTCTATAT | 1.05 ± 0.11
TTCTCTTGTT | 1 ± 0.037
TTCTGAATTT | 0.999 ± 0.028
TTCTGACGGT | 1.12 ± 0.037
TTCTGCGGCT | 1.12 ± 0.039
TTCTGCTCGC | 1.08 ± 0.058
TTCTGGATCT | 0.996 ± 0.044
TTCTGGCATG | 1.09 ± 0.099
TTCTGGGGCT | 1.03 ± 0.017
TTCTGGGGTG | 1.46 ± 0.67
TTCTGGGTGG | 0.987 ± 0.04
TTCTGGTAGG | 1 ± 0.025
TTCTGTAATT | 1.02 ± 0.018
TTCTGTTAGA | 1 ± 0.012
TTCTGTTGAT | 0.9875 ± 0.0092
TTCTTATTTT | 0.999 ± 0.014
TTCTTGATAA | 1.01 ± 0.013
TTCTTGGGGG | 1.01 ± 0.029
TTCTTTATTT | 0.993 ± 0.027

Sequence | switch fluorescence ratio
TTCTTTGAAT | 1.036 ± 0.0013
TTCTTTGACT | 0.983 ± 0.024
TTCTTTGGAC | 1.0597 ± 0.0003
TTCTTTTCTT | 1.02 ± 0.047
TTGAAAATCT | 1.02 ± 0.029
TTGAAATATT | 1.02 ± 0.013
TTGAAATCTT | 1.78 ± 1
TTGAAATTT | 1.001 ± 0.003
TTGAACGAGA | 0.998 ± 0.019
TTGAACGCGG | 1.05 ± 0.018
TTGAACGGGA | 1.01 ± 0.044
TTGAACTTGT | 1.03 ± 0.028
TTGAAGGTGC | 1.69 ± 0.43
TTGAATAGTG | 0.966 ± 0.029
TTGAATTTGT | 0.975 ± 0.023
TTGACAAGAT | 1.28 ± 0.39
TTGACACTCG | 0.98 ± 0.021
TTGACAGAGT | 1.01 ± 0.028
TTGACCGGAA | 1.14 ± 0.038
TTGACCTGGT | 1.05 ± 0.053
TTGACGAAAT | 1.41 ± 0.03
TTGACGCAGT | 1.23 ± 0.03
TTGACGTATT | 0.9874 ± 0.006
TTGACGTGTG | 0.961 ± 0.01
TTGACTTTTT | 0.991 ± 0.016

Sequence | switch fluorescence ratio
TTGAGAATAC | 1.62 ± 0.68
TTGAGAATT | 1.02 ± 0.051
TTGAGATCGG | 1.01 ± 0.05
TTGAGATGGT | 0.954 ± 0.017
TTGAGATTCG | 1.01 ± 0.031
TTGAGATTGC | 0.98 ± 0.027
TTGAGCAGCG | 1.09 ± 0.07
TTGAGCATAG | 1.43 ± 0.44
TTGAGCCA | 1.01 ± 0.025
TTGAGCTAGG | 1.01 ± 0.023
TTGAGCTGTT | 0.981 ± 0.033
TTGAGGAATG | 1.02 ± 0.018
TTGAGGGCAT | 1.29 ± 0.45
TTGAGGGGCG | 0.996 ± 0.044
TTGAGGTATA | 0.987 ± 0.025
TTGAGTACTT | 0.988 ± 0.025
TTGAGTCATG | 0.978 ± 0.047
TTGAGTGGTC | 0.997 ± 0.016
TTGAGTTACT | 0.981 ± 0.063
TTGAGTTCGG | 0.986 ± 0.015
TTGAGTTTGA | 0.994 ± 0.011
TTGATATAGT | 0.9993 ± 0.0073
TTGATATATA | 0.974 ± 0.018
TTGATATATT | 0.981 ± 0.017
TTGATATCTA | 0.982 ± 0.049
